Measured values taken from PMC12008863 (Journal of Translational Medicine, 2025).

Columns and labels:
[1] = biological target: T1, Transthyretin (human, amino acids 21-147, recombinant) (human, UniProt P02766 21-147); assay: SPR
[2] = biological target: T1, Transthyretin (human, amino acids …); assay: Langmuir equilibrium adsorption

B1: Heterogeneous nuclear ribonucleoprotein A2B1 (human, amino acids 12-195, recombinant) (domain or fragment)
chain: RKKREKEQFRKLFIGGLSFETTEESLRNYYEQWGKLTDCVVMRDPASKRSRGFGFVTFSSMAEVDAAMAARPHSIDGRVVEPKRAVAREESGKPGAHVTVKKLFVGGIKEDTEEHHLRDYFEEYGKIDTIEIITDRQSGKKRGFGFVTFDDHDPVDKIVLQKYHTINGHNAEVRKALSRQEMQE
With B1 the Kd [1] was 3.68 µM and the Kd [2] was 7.13 µM.
